According to publication PMC13397619:

B1: NLV3 TCR beta chain (CDR3β only) (parent)
chain: ASSPTGGSPSPLH
partner: MLVPMVATV

Variants of: B1
Experiment: T-Switch: Jurkat TCRβ−/− cells expressing a CDR3 saturation-mutagenesis library, stained with two peptide-HLA-A*02:01 tetramers (original and novel peptide) plus anti-CD3, FACS-sorted into four gates, gDNA sequenced
Details: with HLA-A*02:01 with peptide … (NLV 3-1, the original bait), tetramers 1 µg/mL, 30 min on ice, DP and SW gates expanded about 10 days between rounds ('two to three rounds of selection' in the Methods), gate SP: higher = more of the variant in the gate that binds the original peptide and not the novel one = retained original binding. Fold enrichment of the CDR3 variant in one FACS gate of a two-tetra, unresolved parent, parent is a CDR3 fragment, scale: fold enrichment, numbering: sequential-on-construct, sequence …
[…] (CDR3 as printed); H13Q derived by comparing it with the table's wild-type CDR3 ASSPTGGSPSPLH was tested, and the enrichment was 5.02.
For […] (CDR3 as printed); S3M derived by comparing it with the table's wild-type CDR3 ASSPTGGSPSPLH, the enrichment was 0.
For […] (CDR3 as printed); G6L derived by comparing it with the table's wild-type CDR3 ASSPTGGSPSPLH, the enrichment was 0.
[…] (CDR3 as printed); P4G derived by comparing it with the table's wild-type CDR3 ASSPTGGSPSPLH gave an enrichment of 0.
For […] (CDR3 as printed); S10A derived by comparing it with the table's wild-type CDR3 ASSPTGGSPSPLH, the enrichment was 10.5.
Variant […] (CDR3 as printed); H13P derived by comparing it with the table's wild-type CDR3 ASSPTGGSPSPLH has an enrichment of 0.
Variant […] (CDR3 as printed); S10L derived by comparing it with the table's wild-type CDR3 ASSPTGGSPSPLH has an enrichment of 8.65.
For […] (CDR3 as printed); P11V derived by comparing it with the table's wild-type CDR3 ASSPTGGSPSPLH, the enrichment was 0.
Work on […] (CDR3 as printed); G7N derived by comparing it with the table's wild-type CDR3 ASSPTGGSPSPLH yielded an enrichment of 0.
Variant […] (CDR3 as printed); S3C derived by comparing it with the table's wild-type CDR3 ASSPTGGSPSPLH has an enrichment of 11.2.
[…] (CDR3 as printed); H13S derived by comparing it with the table's wild-type CDR3 ASSPTGGSPSPLH gave an enrichment of 7.33.
In the case of […] (CDR3 as printed); P11F derived by comparing it with the table's wild-type CDR3 ASSPTGGSPSPLH, the enrichment is reported as 0.
For […] (CDR3 as printed); G7E derived by comparing it with the table's wild-type CDR3 ASSPTGGSPSPLH, the enrichment was 0.336.
[…] (CDR3 as printed); T5L derived by comparing it with the table's wild-type CDR3 ASSPTGGSPSPLH gave an enrichment of 9.97.
In the case of […] (CDR3 as printed); S10R derived by comparing it with the table's wild-type CDR3 ASSPTGGSPSPLH, the enrichment is reported as 0.
With […] (CDR3 as printed); S3Q derived by comparing it with the table's wild-type CDR3 ASSPTGGSPSPLH the enrichment was 0.
For […] (CDR3 as printed); S10I derived by comparing it with the table's wild-type CDR3 ASSPTGGSPSPLH, the enrichment was 0.
[…] (CDR3 as printed); S8G derived by comparing it with the table's wild-type CDR3 ASSPTGGSPSPLH was tested, and the enrichment was 0.
With […] (CDR3 as printed); G6D derived by comparing it with the table's wild-type CDR3 ASSPTGGSPSPLH the enrichment was 0.39.
Variant […] (CDR3 as printed); L12M derived by comparing it with the table's wild-type CDR3 ASSPTGGSPSPLH has an enrichment of 2.27.
[…] (CDR3 as printed); P4M derived by comparing it with the table's wild-type CDR3 ASSPTGGSPSPLH gave an enrichment of 4.15.
In the case of […] (CDR3 as printed); S10H derived by comparing it with the table's wild-type CDR3 ASSPTGGSPSPLH, the enrichment is reported as 0.
[…] (CDR3 as printed); P11L derived by comparing it with the table's wild-type CDR3 ASSPTGGSPSPLH showed an enrichment of 2.19.
[…] (CDR3 as printed); P4S derived by comparing it with the table's wild-type CDR3 ASSPTGGSPSPLH gave an enrichment of 0.723.
[…] (CDR3 as printed); S8D derived by comparing it with the table's wild-type CDR3 ASSPTGGSPSPLH was tested, and the enrichment was 0.
With […] (CDR3 as printed); G6S derived by comparing it with the table's wild-type CDR3 ASSPTGGSPSPLH the enrichment was 10.5.
Variant […] (CDR3 as printed); H13N derived by comparing it with the table's wild-type CDR3 ASSPTGGSPSPLH has an enrichment of 7.17.
Variant […] (CDR3 as printed); S10Q derived by comparing it with the table's wild-type CDR3 ASSPTGGSPSPLH has an enrichment of 5.52.
For […] (CDR3 as printed); L12P derived by comparing it with the table's wild-type CDR3 ASSPTGGSPSPLH, the enrichment was 0.
In the case of […] (CDR3 as printed); S10F derived by comparing it with the table's wild-type CDR3 ASSPTGGSPSPLH, the enrichment is reported as 0.
[…] (CDR3 as printed); P9E derived by comparing it with the table's wild-type CDR3 ASSPTGGSPSPLH showed an enrichment of 0.
[…] (CDR3 as printed); S2G derived by comparing it with the table's wild-type CDR3 ASSPTGGSPSPLH gave an enrichment of 1.01.
Variant […] (CDR3 as printed); G6Y derived by comparing it with the table's wild-type CDR3 ASSPTGGSPSPLH has an enrichment of 0.
With […] (CDR3 as printed); A1D derived by comparing it with the table's wild-type CDR3 ASSPTGGSPSPLH the enrichment was 0.
[…] (CDR3 as printed); G7T derived by comparing it with the table's wild-type CDR3 ASSPTGGSPSPLH gave an enrichment of 0.
[…] (CDR3 as printed); P9K derived by comparing it with the table's wild-type CDR3 ASSPTGGSPSPLH showed an enrichment of 0.
[…] (CDR3 as printed); G7I derived by comparing it with the table's wild-type CDR3 ASSPTGGSPSPLH was tested, and the enrichment was 0.
[…] (CDR3 as printed); T5R derived by comparing it with the table's wild-type CDR3 ASSPTGGSPSPLH was tested, and the enrichment was 0.
Variant […] (CDR3 as printed); G6N derived by comparing it with the table's wild-type CDR3 ASSPTGGSPSPLH has an enrichment of 0.
[…] (CDR3 as printed); A1K derived by comparing it with the table's wild-type CDR3 ASSPTGGSPSPLH showed an enrichment of 0.
With […] (CDR3 as printed); P9V derived by comparing it with the table's wild-type CDR3 ASSPTGGSPSPLH the enrichment was 3.5.
[…] (CDR3 as printed); H13A derived by comparing it with the table's wild-type CDR3 ASSPTGGSPSPLH was tested, and the enrichment was 6.12.
